B1: Protein piccolo, residues 1058 to 1114; numbered along this chain, Q9Y6V0 (parent)
chain: TCPLCKTELNIGSKDPPNFNTCTECKNQVCNLCGFNPTPHLTEIQEWLCLNCQTQRA

Variants of: B1
Experiment: abundance fitness (aPCA) (normalised: wild type 0, dead -1); higher = more abundant; growth selection in yeast, the domain comes from the species named
Details: Homo sapiens

Abundance fitness: each site, then its substitutions
D15: R -0.257; S -0.051; T -0.013; V 0.001; W -0.328; Y 0.124
P16: A -0.37; C -0.045; E -0.187; F 0.024; G -0.354; H 0.009; I -0.173; K -0.248; L -0.095; M -0.09; N -0.229; Q -0.094; R -0.179; S -0.057; T -0.37; V -0.483; W -0.541; Y -0.056
P17: A -0.176; D -0.122; E 0.137; F -0.245; G -0.097; I -0.448; K 0.127; L -0.084; M -0.491; N -0.189; Q -0.114; R -0.106; S -0.175; T -0.464; V -0.428; W -0.199; Y -0.53
N18: A -0.199; C -0.219; D 0.008; E -0.104; F -0.199; G -0.098; H -0.1; I -0.5; K -0.032; M -0.842; P -0.047; Q -0.07; R -0.079; S -0.128; T -0.089; V -0.348; W -0.346; Y -0.094
F19: A -0.114; C -0.347; E -0.153; H -0.022; I 0.178; K -0.737; L -0.151; M 0.181; N 0.04; P -0.385; R -0.263; S -0.277; T -0.044; V -0.211; W -0.083; Y 0.032
N20: A -0.001; C -0.091; D 0.186; E -0.012; F -0.051; G 0.055; I -0.115; L -0.024; M 0.188; Q 0.094; R 0.078; S -0.082; T 0.067; V 0.07; W -0.188; Y -0.337
T21: A 0.004; C 0.032; D -0.078; E 0.036; F -0.109; G -0.053; H 0.013; K 0.198; L -0.098; M 0.298; P -0.169; S 0.083; V 0.091; W 0.106; Y 0.135
C22: A -0.647; D -0.817; E -0.54; F -0.958; G -0.69; H -0.567; I -1.04; K -0.818; L -0.675; M -0.74; P -0.938; Q -0.791; R -0.484; S -0.611; T -0.736; V -0.733; W -1.03; Y -0.899
T23: A 0.097; C 0.041; D 0.041; E -0.043; F 0.288; H -0.18; I -0.187; K -0.031; L -0.163; M 0.062; N -0.342; P -0.126; Q -0.36; R -0.016; S 0.003; V 0.067; Y 0.024
E24: A -0.061; C -0.706; D 0.008; F -0.269; G -0.012; H -0.058; K -0.017; L -0.363; M -0.06; N -0.184; P -0.517; Q -0.135; R -0.01; S -0.13; T 0.034; V 0.001; W -0.198
C25: A -0.784; D -0.834; G -0.682; H -0.529; I -0.669; K -0.808; L -0.846; M -0.742; N -0.66

Source: the Human Domainome abundance scans (Beltran et al. 2025)
